± gives the uncertainty stated by the source.
Assay: self-splicing fitness, log relative to wild type (ln ratio); higher = more splicing; Tetrahymena group I intron in knt gene, E. coli kanamycin selection, DiMSum; sequences stand for … in CUCUCU…GGAGGGAAAAGUUAUCAGGCAUGCACCUGGUAGCUAGUCUUUAAACCAAUAGAUUGCAUCGGUUUAAAAGGCAAGACCGUCAAAUUGCGGGAAAGGGGUCAACAGCCGUUCAGUACCAAGUCUCAGGGGAAACUUUGAGAUGGCCUUGCAAAGGGUAUGGUAAUAAGCUGACGGACAUGGUCCUAACCACGCAGCCAAGUCCUAAGUCAACAGAUCUUCUGUUGAUAUGGAUGCAGUUCACAGACUAAAUGUCGGUCGGGGAAGAUGUAUUCUUCUCAUAAGAUAUAGUCGGACCUCUCCUUAAUGGGAGCUAGCGGAUGAAGUGAUGCAACACUGGAGCCGCUGGGAACUAAUUUGUAUGCGAAAGUAUAUUGAUUAGUUUUGGAGUACUCGUGGUCG
How it was run: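 A randomised library covering all eight P1ex-region intron nucleotides was built with the intron in the knt kanamycin-resistance gene on pET-22b(+) and held in E. coli BL21(DE3). Cells were grown overnight at 37°C or 30°C on LB agar, with or without 25 μg/mL kanamycin, plus 100 μg/mL carbenicillin, 50 μM IPTG and 0.2% rhamnose, and pooled colonies were amplicon-sequenced on an Illumina HiSeq 2500. DiMSum fitness is the error-weighted combination of wild-type-normalised replicate fold changes, kanamycin versus none.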

Sequence | self-splicing fitness (ln) (30 °C) | self-splicing fitness (ln) (37 °C)
UUGGAGCAAUAUUACGACUU | -1.94 ± 0.19 | -0.866 ± 0.28
CACGAGCAAUAUUACGCUCG | -4.11 ± 0.39 | -1.3 ± 0.22
UCAUAGCAAUAUUACGGGUU | -4.83 ± 0.36 | -3.34 ± 0.25
GUAUAGCAAUAUUACGUUGA | -2.87 ± 0.21 | -1.41 ± 0.18
UCAGAGCAAUAUUACGCCAU | – | -1.91 ± 0.29
UCGUAGCAAUAUUACGAAUA | – | -2.55 ± 0.27
AUGUAGCAAUAUUACGCUGU | -2.92 ± 0.12 | -1.12 ± 0.11
GUGCAGCAAUAUUACGAGCA | -3.43 ± 0.31 | -1.18 ± 0.15
GCCUAGCAAUAUUACGGACG | -1.98 ± 0.2 | -0.148 ± 0.18
GUACAGCAAUAUUACGAUCA | -1.83 ± 0.13 | -0.392 ± 0.2
GACAAGCAAUAUUACGAAGC | -2.96 ± 0.22 | -2.15 ± 0.28
GAUCAGCAAUAUUACGGGUA | -0.0547 ± 0.089 | -0.665 ± 0.086
CCGCAGCAAUAUUACGAAUA | -3.37 ± 0.38 | -2.62 ± 0.38
GCAAAGCAAUAUUACGCCUU | -2.55 ± 0.23 | -1.04 ± 0.21
CCAAAGCAAUAUUACGAAAU | -3.31 ± 0.19 | -3.2 ± 0.28
ACACAGCAAUAUUACGAAUG | -2.63 ± 0.1 | -1.08 ± 0.084
CCGAAGCAAUAUUACGACAU | -3.977 ± 0.028 | -2.82 ± 0.04
CCUGAGCAAUAUUACGCUUU | -1.94 ± 0.17 | -3.14 ± 0.28
CACCAGCAAUAUUACGAAGA | -3.26 ± 0.21 | -1.81 ± 0.2
AACCAGCAAUAUUACGCACG | -0.891 ± 0.055 | -0.215 ± 0.078
CCCUAGCAAUAUUACGAUCA | -3.03 ± 0.25 | -2.22 ± 0.24
UAUGAGCAAUAUUACGAGAA | -2.28 ± 0.37 | -0.332 ± 0.24
UGAUAGCAAUAUUACGAUAA | -2.12 ± 0.16 | -0.841 ± 0.17
CAUAAGCAAUAUUACGCCAC | -2.8 ± 0.37 | -2.59 ± 0.39
CUCCAGCAAUAUUACGGGAG | -3.68 ± 0.15 | -1.91 ± 0.16

Sequence | self-splicing fitness (ln) (30 °C) | self-splicing fitness (ln) (37 °C)
UAUGAGCAAUAUUACGUGUU | -3.34 ± 0.17 | -2.99 ± 0.18
CAUAAGCAAUAUUACGAAGU | -3.15 ± 0.17 | -2.75 ± 0.29
ACGUAGCAAUAUUACGCCCA | -0.614 ± 0.12 | -0.952 ± 0.14
AACCAGCAAUAUUACGGCAU | 0.127 ± 0.053 | 0.376 ± 0.067
UCGCAGCAAUAUUACGGUAC | – | -2.21 ± 0.31
ACGCAGCAAUAUUACGUCGA | -2.34 ± 0.11 | -1.34 ± 0.092
ACCCAGCAAUAUUACGGAAG | -2.49 ± 0.091 | -1.02 ± 0.1
CCAUAGCAAUAUUACGUCGC | -3.46 ± 0.22 | -3.74 ± 0.31
AAGCAGCAAUAUUACGCUGC | -3.47 ± 0.13 | -3.05 ± 0.18
CACCAGCAAUAUUACGUUGG | -4.24 ± 0.13 | -2.74 ± 0.13
GAUUAGCAAUAUUACGUAUC | – | -2.77 ± 0.36
CACCAGCAAUAUUACGCCCU | -4.12 ± 0.26 | -0.642 ± 0.11
CAUGAGCAAUAUUACGUAGU | -5.58 ± 0.41 | -3.3 ± 0.19
UUUCAGCAAUAUUACGGGGU | -3.58 ± 0.17 | -1.68 ± 0.15
UUACAGCAAUAUUACGACAA | -0.25 ± 0.07 | 0.353 ± 0.083
GCCCAGCAAUAUUACGACCU | -1.07 ± 0.12 | -0.407 ± 0.15
CAAAAGCAAUAUUACGGCAU | -1.85 ± 0.11 | -1.4 ± 0.14
GUAUAGCAAUAUUACGACUU | -0.268 ± 0.072 | -0.0307 ± 0.085
CGUCAGCAAUAUUACGGAGU | -3.45 ± 0.17 | -2.55 ± 0.18
CCUGAGCAAUAUUACGUCUC | – | -3.42 ± 0.37
AGAGAGCAAUAUUACGAUAG | – | -0.994 ± 0.49
CUACAGCAAUAUUACGUCCG | -0.955 ± 0.095 | 0.368 ± 0.12
GUAUAGCAAUAUUACGAGUA | -1.18 ± 0.19 | -1.77 ± 0.22
GGUUAGCAAUAUUACGCGAC | -2.02 ± 0.34 | -1.33 ± 0.27
AGGGAGCAAUAUUACGUCCA | -1.11 ± 0.27 | -0.389 ± 0.33

Sequence | self-splicing fitness (ln) (30 °C) | self-splicing fitness (ln) (37 °C)
CGUAAGCAAUAUUACGUUUA | -1.69 ± 0.18 | -1.41 ± 0.18
AUAUAGCAAUAUUACGCUCU | -0.66 ± 0.18 | -0.594 ± 0.18
UGCGAGCAAUAUUACGCUAC | – | -0.55 ± 0.46
UAGCAGCAAUAUUACGGCAU | -1.29 ± 0.081 | -0.191 ± 0.089
AUAAAGCAAUAUUACGUCCA | -0.469 ± 0.098 | 0.194 ± 0.16
UUUAAGCAAUAUUACGCUGA | -2.47 ± 0.2 | -0.978 ± 0.15
CCCCAGCAAUAUUACGAAUC | -3.68 ± 0.16 | -2.49 ± 0.22
UAUAAGCAAUAUUACGUUUA | -1.03 ± 0.1 | -0.548 ± 0.11
UAGCAGCAAUAUUACGUGAC | -3.19 ± 0.18 | -3.45 ± 0.28
CAAUAGCAAUAUUACGGCUA | -2.26 ± 0.22 | -2.1 ± 0.19
ACAAAGCAAUAUUACGCUCU | -1.09 ± 0.063 | -0.102 ± 0.095
AGAUAGCAAUAUUACGGUGA | -1.9 ± 0.2 | -0.858 ± 0.17
ACUGAGCAAUAUUACGGACU | -1.08 ± 0.077 | -0.672 ± 0.093
AAGUAGCAAUAUUACGUGUA | -1.98 ± 0.13 | -1.41 ± 0.14
AAACAGCAAUAUUACGCACU | -0.221 ± 0.079 | 0.0967 ± 0.091
ACAAAGCAAUAUUACGAACC | -0.815 ± 0.21 | -1.44 ± 0.19
CUCAAGCAAUAUUACGAGCG | -3 ± 0.15 | -1.31 ± 0.12
CCGGAGCAAUAUUACGAUAU | – | -2.37 ± 0.42
UGAGAGCAAUAUUACGGUGG | -3.4 ± 0.17 | -2.82 ± 0.2
CUCCAGCAAUAUUACGCGAC | -3.79 ± 0.2 | -2.31 ± 0.18
UUAGAGCAAUAUUACGGCCU | -4.22 ± 0.39 | –
AGGCAGCAAUAUUACGAUUA | -1.12 ± 0.1 | -0.936 ± 0.095
ACUGAGCAAUAUUACGCUCG | -2.59 ± 0.24 | -1.59 ± 0.23
GUGGAGCAAUAUUACGCUAA | -2.72 ± 0.25 | -1.6 ± 0.19
CUUAAGCAAUAUUACGGACU | -3.14 ± 0.15 | -1.62 ± 0.17

Sequence | self-splicing fitness (ln) (30 °C) | self-splicing fitness (ln) (37 °C)
AAAGAGCAAUAUUACGAUCG | -2.55 ± 0.12 | -1.29 ± 0.15
GAGAAGCAAUAUUACGUUGG | -2.35 ± 0.15 | -2.66 ± 0.21
ACCAAGCAAUAUUACGUACC | -1.57 ± 0.17 | -1.32 ± 0.17
GAGUAGCAAUAUUACGCAGU | -3.14 ± 0.39 | -2.03 ± 0.22
AGAGAGCAAUAUUACGCAUA | -3.84 ± 0.39 | -2.96 ± 0.47
CAGGAGCAAUAUUACGAGGA | -3.55 ± 0.25 | -3.69 ± 0.29
ACGUAGCAAUAUUACGAAAC | -2.02 ± 0.45 | -2.26 ± 0.4
AAUUAGCAAUAUUACGUCCA | -0.685 ± 0.087 | -1.2 ± 0.096
UGACAGCAAUAUUACGAGUC | -3.94 ± 0.23 | -3.33 ± 0.32
AACUAGCAAUAUUACGAAAA | -1.53 ± 0.16 | -1.75 ± 0.17
UGCUAGCAAUAUUACGAAUA | -1.27 ± 0.13 | -1.16 ± 0.12
AGGAAGCAAUAUUACGAAGG | -2.92 ± 0.28 | -2.8 ± 0.38
CCUUAGCAAUAUUACGAGGC | -4.12 ± 0.29 | -1.6 ± 0.27
AAACAGCAAUAUUACGCGCA | -0.282 ± 0.081 | -0.19 ± 0.087
UGGCAGCAAUAUUACGCCAA | -1.03 ± 0.13 | -0.634 ± 0.12
GAGCAGCAAUAUUACGUAUC | -2.06 ± 0.087 | -1.44 ± 0.091
GCCGAGCAAUAUUACGUGUC | -3.23 ± 0.14 | -1.64 ± 0.12
AUAGAGCAAUAUUACGCGGG | -2.17 ± 0.12 | -2.33 ± 0.16
AGGGAGCAAUAUUACGGUCG | -2.2 ± 0.31 | -2.83 ± 0.48
AUUAAGCAAUAUUACGUGGU | -2.42 ± 0.16 | -2.29 ± 0.19
ACUGAGCAAUAUUACGAAGA | -2.33 ± 0.22 | -1.64 ± 0.2
AAACAGCAAUAUUACGCAAC | -3.6 ± 0.29 | -1.93 ± 0.17
UGGGAGCAAUAUUACGGUUG | -2.07 ± 0.22 | –

From the supplement of paper PMC7877785
